Reference: US20230039157A1

Tests used:
[1] = biological target: IL-2Rβ and common γ chain on 32Dβ cells; test: cell-based or functional assay
[2] = biological target: IL-2Rα, IL-2Rβ and common γ chain on CTLL-2 cells; test: cell-based or functional assay
[3] = biological target: mouse (m)21t15 multi-chain chimeric polypeptide
[4] = biological target: 21t15-7s multi-chain chimeric polypeptide
[5] = biological target: 18t15-12s multi-chain chimeric polypeptide
TF219 = biological target: T1, TF219
T1 chain: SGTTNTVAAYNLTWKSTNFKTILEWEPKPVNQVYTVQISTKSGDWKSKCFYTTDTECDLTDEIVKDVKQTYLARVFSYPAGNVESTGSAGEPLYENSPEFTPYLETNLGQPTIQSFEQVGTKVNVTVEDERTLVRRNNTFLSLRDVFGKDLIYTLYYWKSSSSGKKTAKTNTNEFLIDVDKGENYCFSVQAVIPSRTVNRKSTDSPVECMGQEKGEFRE

[6] = biological target: 21t15-TGFRs multi-chain chimeric polypeptide

Molecule | EC50 of 32Dβ cell proliferation (WST1, absorbance at 450 nM) [1] [nM] | EC50 of CTLL-2 cell proliferation (WST1, absorbance at 450 nM) [2] [nM] | FX activation measured by FXa activity (chromogenic substrate S-2765) [3] | FX activation measured by FXa activity (chromogenic substrate S-2765) [4] | FX activation measured by FXa activity (chromogenic substrate S-2765) [5] | FX activation measured by FXa activity (chromogenic substrate S-2765) (TF219) | FX activation measured by FXa activity (chromogenic substrate S-2765) [6]
recombinant IL-15 (from UniProt P40933 49-162) (ligand) | 0.0016 | – | – | – | – | – | –
recombinant IL-2 (from UniProt P60568 21-153) (ligand) | 0.14 | 0.548 | – | – | – | – | –
Factor VIIa (protein) ANAFLEELRPGSLERECKEEQCSFEEAREIFKDAERTKLFWISYSDGDQCASSPCQNGGSCKDQLQSYICFCLPAFEGRNCETHKDDQLICVNENGGCEQYCSDHTGTKRSCRCHEGYSLLADGVSCTPTVEYPCGKIPILEKRNASKPQGRIVGGKVCPKGECPWQVLLLVNGAQLCGGTLINTIWVVSAAHCFDKIKNWRNLIAVLGEHDLSEHDGDEQSRRVAQVIIPSTYVPGTTNHDIALLRLHQPVVLTDHVVPLCLPERTFSERTLAFVRFSLVSGWGQLLDRGATALELMVLNVPRLMTQDCLQQSRKVGDSPNITEYMFCAGYSDGSKDSCKGDSGGPHATHYRGTWYLTGIVSWGQGCATVGHFGVYTRVSQYIEWLQKLMRSEPRPGVLLRAPFP | – | – | TF219 and TF219-containing multi-chain chimeric polypeptides had very low FX activation activity | TF219 and TF219-containing multi-chain chimeric polypeptides had very low FX activation activity | TF219 and TF219-containing multi-chain chimeric polypeptides had very low FX activation activity | TF219 and TF219-containing multi-chain chimeric polypeptides had very low FX activation activity | TF219 and TF219-containing multi-chain chimeric polypeptides had very low FX activation activity
